According to paper PMC2605743, “Lipid bilayer composition influences small multidrug transporters” (BMC Biochemistry, 2008):

Experiments:
EmrE = biological target: T1, EmrE (Escherichia coli, UniProt P23895); experiment: isothermal titration calorimetry; type: binding
T1 construct: dimer by TPP stoichiometry

[1] = test system: C[n+]1ccc(-c2cc[n+](C)cc2)cc1; experiment: purified protein; conditions: labelled compound; DOPC liposomes without added DOPG; pH gradient (inside 7.5, outside 8); saturation incomplete, estimate

T1 sequence (P23895 whole entry): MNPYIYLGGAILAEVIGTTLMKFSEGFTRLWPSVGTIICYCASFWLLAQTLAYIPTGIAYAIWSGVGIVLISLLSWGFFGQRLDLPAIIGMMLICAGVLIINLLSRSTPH

c1ccc([P+](c2ccccc2)(c2ccccc2)c2ccccc2)cc1 [TPP]
Kd (EmrE): 36 nM

EmrE (Escherichia coli K-12)
Km [1]: 1100 ± 500 µM | Vmax [1]: 2 µmol/min
